The values below come from patent US8772229B2, “Methods for synthesis and uses of inhibitors of ghrelin O-acyltransferase as potential therapeutic agents for obesity and diabetes” (The Johns Hopkins University, priority 2008, dated 2014).

Series [1] has as its target T1, p300 HAT (Homo sapiens, UniProt Q09472).
T1 construct: Recombinant acetyltransferase domains and histone tail peptides were prepared as described previously (38-40); made in house
T1 sequence (Q09472 1287-1663 limits assumed): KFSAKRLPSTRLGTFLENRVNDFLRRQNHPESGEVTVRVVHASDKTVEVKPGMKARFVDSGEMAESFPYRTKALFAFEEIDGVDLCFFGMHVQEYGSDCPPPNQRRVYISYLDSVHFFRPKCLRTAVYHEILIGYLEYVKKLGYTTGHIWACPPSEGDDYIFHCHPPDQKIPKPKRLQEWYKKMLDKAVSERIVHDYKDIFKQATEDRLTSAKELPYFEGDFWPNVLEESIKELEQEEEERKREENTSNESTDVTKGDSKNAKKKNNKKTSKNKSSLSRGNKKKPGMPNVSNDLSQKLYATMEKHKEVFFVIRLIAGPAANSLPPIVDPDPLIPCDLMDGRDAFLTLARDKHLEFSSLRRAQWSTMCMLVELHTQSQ
The experiment in a line: Acetyltransferase specificity assay (α-KGDH coupled), p300. The format is biochemical. Here is the method: (§1) The specificity of GO-CoA-Tat with the acetyltransferases p300, PCAF, and AANAT was measured using an α-ketoglutarate dehydrogenase (α-KGDH) coupled spectrophotometric assay (37). Recombinant acetyltransferase domains and histone tail peptides were prepared as described previously (38-40). The production of CoASH by the acetyltransferase is coupled to the formation of NADH, which is monitored at 340 nm (ε340=6230 M^−1 cm^−1) in a Beckman DU-640 spectrophotometer. All reactions contain 200 μM thiamine pyrophosphate, 5 mM MgCl2, 1 mM DTT, 50 μg/mL BSA, 200 μM NAD, 2.4 mM α-ketoglutarate, 10 μM GO-CoA-Tat, and 50 μM acetyl-CoA. Reactions with p300 were performed in 100 mM HEPES, pH 7.9, and contain 0.1 units α-KGDH and 200 μM H4-15, a 15-mer peptide substrate based on the sequence of the histone H4 tail. p300 reactions are incubated at 30° C. prior to initiation with addition of 100 nM p300 and take place at 30° C. Reactions with PCAF are performed in 100 mM HEPES, pH 7.9, and contain 0.037 units α-KGDH and 100 μM H3-20, a 20-mer peptide substrate based on the sequence of the histone H3 tail. PCAF reactions are incubated at 30° C. for 10 minutes prior to initiation with addition of 100 nM PCAF and take place at 30° C. Reactions with AANAT are performed in 100 mM NH4OAc, pH 6.8, and contain 0.1 units α-KGDH and 200 μM tryptamine. […]

The target in series [2] is T2, serotonin N-acetyltransferase (Ovis aries, UniProt Q29495).
T2 construct: Recombinant acetyltransferase domains and histone tail peptides were prepared as described previously (38-40); made in house
The experiment in a line: Acetyltransferase specificity assay (α-KGDH coupled), AANAT. The format is biochemical. The protocol: as §1

A short description of series [3]: Blood chemistries and blood cell counts after 12 days of treatment. The format is in vivo, mice. The conditions noted are these: 12 day treatment. From the text:
To investigate the potential for GO-CoA-Tat induced generalized toxicity or organ damage as a source of weight loss, we assessed the blood chemistries and blood cell counts in the 12 day GO-CoA-Tat treated animals.

Series [4] concerns HEPG2 cell. The experiment in a line: Cell viability assay (LIVE/DEAD), HepG2 cells. The format is cell-based, human. The conditions noted are these: 10 μM, 24 hr incubation. Here is the method:
(§2) The viability of the HEL cell line and the human immortalized hepatocyte cell line HepG2 (ATCC, Manassas, Va.) treated with the varying concentrations of GO-CoA-Tat was determined using a LIVE/DEAD viability assay kit (Molecular Probes). […] were incubated with two probes, 2 μM calcein-AM (green color) for 30 min and 4 μM ethidium homodimer-1 (EtdD-1, bright red color) for 10 min, for intracellular esterase activity and plasma membrane integrity, respectively. Calcein-AM was excited using the 500 nm laser line, and the emitted fluorescence was detected through a 535 nm long-pass filter. EtdD-1 was excited using the 514 nm laser line, and the emitted fluorescence was detected through a 550 nm long-pass filter. Red fluorescent (EtdD-1) cells were counted as dead, and green fluorescent (Calcein-AM) were counted as viable. In cases of dual partial red and green staining, cells were counted as dead.

The subject of series [5] is HEL cell. The experiment in a line: Cell viability assay (LIVE/DEAD), HEL cells. The format is cell-based, human. The conditions noted are these: 10 μM, 24 hr incubation. The protocol:
as §2

The target in series [6] is T3, PCAF HAT (Homo sapiens, UniProt Q92831).
T3 construct: Recombinant acetyltransferase domains and histone tail peptides were prepared as described previously (38-40); made in house
Put plainly: Acetyltransferase specificity assay (α-KGDH coupled), PCAF. The format is biochemical. The protocol: as §1

Molecules are shown by their SMILES.

T3 sequence (Q92831 503-651 limits assumed): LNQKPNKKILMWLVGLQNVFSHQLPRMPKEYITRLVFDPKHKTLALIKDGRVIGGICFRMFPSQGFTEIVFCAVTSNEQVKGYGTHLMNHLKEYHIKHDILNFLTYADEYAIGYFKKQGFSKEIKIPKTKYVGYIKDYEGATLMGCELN
T2 sequence (Q29495 35-196 limits assumed): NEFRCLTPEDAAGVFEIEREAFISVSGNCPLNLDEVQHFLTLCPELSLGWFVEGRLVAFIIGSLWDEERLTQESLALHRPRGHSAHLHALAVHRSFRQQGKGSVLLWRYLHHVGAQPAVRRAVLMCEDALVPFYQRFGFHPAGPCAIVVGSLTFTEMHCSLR

Turning to `CCCCCCC(SCCNC(=O)CCNC(=O)[C@H](O)C(C)(C)COP(=O)(O)OP(=O)(O)OC[C@H]1O[C@@H](n2cnc3c(N)ncnc32)[C@H](O)[C@@H]1OP(=O)(O)O)C(=O)NC[C@H](NC(=O)[C@H](CO)NC(=O)CN)C(=O)N[C@@H](Cc1ccccc1)C(=O)N[C@@H](CC(C)C)C(=O)N[C@@H](CO)C(=O)N1CCC[C@H]1C(=O)N[C@@H](CCC(=O)O)C(=O)N[C@@H](Cc1c[nH]cn1)C(=O)N[C@@H](CCC(N)=O)C(=O)NCCCCCC(=O)N[C@@H](Cc1ccc(O)cc1)C(=O)NCC(=O)N[C@@H](CCCNC(=N)N)C(=O)N[C@@H](CCCCN)C(=O)N[C@@H](CCCCN)C(=O)N[C@@H](CCCNC(=N)N)C(=O)N[C@@H](CCCNC(=N)N)C(=O)N[C@@H](CCC(N)=O)C(=O)N[C@@H](CCCNC(=N)N)C(=O)N[C@@H](CCCNC(=N)N)C(=O)N[C@@H](CCCNC(=N)N)C(=O)O` (some centres unmarked) [GO-CoA-Tat], the inhibition at 10 µM in series [1], in series [2] and in series [6] was below 15% throughout. Further, in series [3] (29 mg/kg IP daily), the “organ toxicity from blood chemistries and blood cell counts” value is recorded as “no evidence of liver, renal, pancreas, or bone marrow toxicities”. Further, in series [3] (vs. D4-Tat), the HDL result is on record as “small but significant increases”. Further, in series [3] (vs. D4-Tat), the triglycerides entry is recorded as “small but significant increases”. Further, the HEPG2 cell viability entry in series [4] was “non-toxic”. Also, the HEL cell viability result in series [5] is recorded as “non-toxic”.

The term inhibition denotes the change of the read-out against control, counted positive when it falls. Low readings indicate a weak effect, high ones a strong effect.
